Target: C3d, the covalently bound activation product of complement C3, in mouse myocardium (mouse (endogenous in C57BL/6 heart)) (UniProt P01027)
Assay: ex vivo organ biodistribution (gamma counting); organs removed after imaging, weighed and gamma counted; heart to blood ratio of injected dose per gram

UniProt P01027, sequence (P01027 1002-1303): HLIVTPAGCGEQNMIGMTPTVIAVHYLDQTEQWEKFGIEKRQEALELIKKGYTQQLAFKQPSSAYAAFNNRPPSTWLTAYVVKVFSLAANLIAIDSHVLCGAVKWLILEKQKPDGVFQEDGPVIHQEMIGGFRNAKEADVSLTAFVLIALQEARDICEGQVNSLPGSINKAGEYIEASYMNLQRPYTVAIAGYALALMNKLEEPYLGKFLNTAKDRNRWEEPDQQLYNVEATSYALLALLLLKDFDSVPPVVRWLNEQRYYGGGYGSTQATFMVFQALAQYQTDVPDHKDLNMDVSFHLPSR

With “99mTechnecium-labelled recombinant complement receptor 2 (SCR1 and SCR2 of human CR2) (domain or fragment)” the heart to blood ratio of %ID/g (heart to blood ratio of %ID/g) was 1.17.

— publication PMC5700950
